Experimental data from paper doi:10.1101/836718.

Columns and labels:
[1] = target: recombinant His-tagged HIV-1 integrase R269A/K273A (IN^RAKA) (HIV-1 (NL4-3)); test: cross-linking
[2] = target: recombinant His-tagged HIV-1 integrase P26 (A128T/H171Q/K173Q/N254K) (IN^P26) (HIV-1 (NL4-3)); test: cross-linking
[3] = target: recombinant His-tagged HIV-1 integrase P26 (A128T/H171Q/K173Q/N254K) (IN^P26) (HIV-1 (NL4-3)); test: SEC
[4] = target: recombinant His-tagged HIV-1 integrase P20 (A128T/K173Q/N254K) (IN^P20) (HIV-1 (NL4-3)); test: SEC
[5] = target: recombinant His-tagged HIV-1 integrase P15 (A128T/K173Q) (IN^P15) (HIV-1 (NL4-3)); test: SEC

Work on “recombinant His-tagged HIV-1 integrase R269A/K273A (IN^RAKA) (enzyme)” yielded a stoichiometry N [1] of 4.
Substance “recombinant His-tagged HIV-1 integrase P26 (A128T/H171Q/K173Q/N254K) (IN^P26) (enzyme)” has a multimer ratio, dimers [2] of 19.6%, a multimer ratio, tetramers [2] of 3.3% and a stoichiometry N [2] of 4. For the same substance, the stoichiometry N [3] was 2.
For “recombinant His-tagged HIV-1 integrase P20 (A128T/K173Q/N254K) (IN^P20) (enzyme)”, the stoichiometry N [4] was 2.
“recombinant His-tagged HIV-1 integrase P15 (A128T/K173Q) (IN^P15) (enzyme)” was tested, and the stoichiometry N [5] was 2.
